Key:
[1] = target: T1, p63-DBD (UniProt Q9H3D4); assay: fluorescence polarization; conditions: FP: 100 nM 5'-fluorescein dsDNA, 10 mM sodium phosphate pH 7.2, 1 mM DTT, temperature not stated; NMR: 1 mM sodium phosphate pH 7.2, 100 mM NaCl, 5 mM DTT …
T1 sequence: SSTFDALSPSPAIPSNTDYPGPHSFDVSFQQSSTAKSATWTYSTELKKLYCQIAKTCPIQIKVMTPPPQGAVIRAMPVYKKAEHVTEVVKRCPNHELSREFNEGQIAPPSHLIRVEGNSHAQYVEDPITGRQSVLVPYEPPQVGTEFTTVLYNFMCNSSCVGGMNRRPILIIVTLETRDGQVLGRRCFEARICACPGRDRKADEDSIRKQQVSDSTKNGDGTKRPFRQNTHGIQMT

[2] = target: p53 DBD (Homo sapiens) (UniProt P04637); conditions: cited from earlier work
Chain of p53 DBD (Homo sapiens) (P04637 94-312): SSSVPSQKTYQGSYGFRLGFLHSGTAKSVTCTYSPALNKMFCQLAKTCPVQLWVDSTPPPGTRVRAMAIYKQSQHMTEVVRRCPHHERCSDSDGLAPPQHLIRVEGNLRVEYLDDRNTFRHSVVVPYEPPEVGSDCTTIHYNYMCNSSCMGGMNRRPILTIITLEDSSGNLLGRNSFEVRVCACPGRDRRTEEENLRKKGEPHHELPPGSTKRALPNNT

[3] = target: fluorescein-labeled BclxLΔTM (human) (UniProt Q07817); assay: fluorescence polarisation; 100 nM N-terminally fluorescein-labeled BclxLΔTM titrated with increasing amounts of p63-DBD; 10 mM sodium phosphate pH 7.2, 1 mM DTT; one-site or cooperative binding model; triplicate
Chain of fluorescein-labeled BclxLΔTM (human) (Q07817 1-212, stated change not applied): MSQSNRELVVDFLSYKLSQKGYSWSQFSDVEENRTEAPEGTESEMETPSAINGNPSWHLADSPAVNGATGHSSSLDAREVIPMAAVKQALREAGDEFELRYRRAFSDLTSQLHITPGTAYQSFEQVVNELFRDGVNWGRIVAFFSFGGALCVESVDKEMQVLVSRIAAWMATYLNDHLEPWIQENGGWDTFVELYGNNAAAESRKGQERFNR

Chain of BclxL (Q07817 whole entry): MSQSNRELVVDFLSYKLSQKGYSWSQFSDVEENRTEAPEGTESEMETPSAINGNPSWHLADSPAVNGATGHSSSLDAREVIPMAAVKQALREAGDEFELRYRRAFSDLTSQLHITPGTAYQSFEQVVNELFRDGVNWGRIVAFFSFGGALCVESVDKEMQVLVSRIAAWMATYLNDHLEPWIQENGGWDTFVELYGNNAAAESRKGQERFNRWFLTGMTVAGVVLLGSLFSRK

Substance | binding signal (fold lower affinity than p53-DBD) [1] | other results
Bax response element | 2 | –
BclxL (from UniProt Q07817) | – | Kd [2]: 5.5 µM
Jag-1 response element | 2 | –
p21 response element | 2 | –
p63 DNA binding domain (from UniProt Q9H3D4 153-388) (domain or fragment) | – | Kd [3]: 38 µM

Reference: publication PMC4880913
